According to patent US11571484B2, “Compositions that target tumor-associated macrophages and methods of use therefor” (Sanford Burnham Prebys Medical Discovery Institute, priority 2017, dated 2023):
Ends that are not written are not given here. FAM = 5(6)-carboxyfluorescein; Ahx = NCCCCCC(=O)O

Biological target: T1, recombinant mouse macrophage mannose receptor rmMMR/CD206 (Mus musculus, UniProt Q61830)
T1 construct: purchased R&D Systems 2535-MM-050
T1 sequence (Q61830 20-1456): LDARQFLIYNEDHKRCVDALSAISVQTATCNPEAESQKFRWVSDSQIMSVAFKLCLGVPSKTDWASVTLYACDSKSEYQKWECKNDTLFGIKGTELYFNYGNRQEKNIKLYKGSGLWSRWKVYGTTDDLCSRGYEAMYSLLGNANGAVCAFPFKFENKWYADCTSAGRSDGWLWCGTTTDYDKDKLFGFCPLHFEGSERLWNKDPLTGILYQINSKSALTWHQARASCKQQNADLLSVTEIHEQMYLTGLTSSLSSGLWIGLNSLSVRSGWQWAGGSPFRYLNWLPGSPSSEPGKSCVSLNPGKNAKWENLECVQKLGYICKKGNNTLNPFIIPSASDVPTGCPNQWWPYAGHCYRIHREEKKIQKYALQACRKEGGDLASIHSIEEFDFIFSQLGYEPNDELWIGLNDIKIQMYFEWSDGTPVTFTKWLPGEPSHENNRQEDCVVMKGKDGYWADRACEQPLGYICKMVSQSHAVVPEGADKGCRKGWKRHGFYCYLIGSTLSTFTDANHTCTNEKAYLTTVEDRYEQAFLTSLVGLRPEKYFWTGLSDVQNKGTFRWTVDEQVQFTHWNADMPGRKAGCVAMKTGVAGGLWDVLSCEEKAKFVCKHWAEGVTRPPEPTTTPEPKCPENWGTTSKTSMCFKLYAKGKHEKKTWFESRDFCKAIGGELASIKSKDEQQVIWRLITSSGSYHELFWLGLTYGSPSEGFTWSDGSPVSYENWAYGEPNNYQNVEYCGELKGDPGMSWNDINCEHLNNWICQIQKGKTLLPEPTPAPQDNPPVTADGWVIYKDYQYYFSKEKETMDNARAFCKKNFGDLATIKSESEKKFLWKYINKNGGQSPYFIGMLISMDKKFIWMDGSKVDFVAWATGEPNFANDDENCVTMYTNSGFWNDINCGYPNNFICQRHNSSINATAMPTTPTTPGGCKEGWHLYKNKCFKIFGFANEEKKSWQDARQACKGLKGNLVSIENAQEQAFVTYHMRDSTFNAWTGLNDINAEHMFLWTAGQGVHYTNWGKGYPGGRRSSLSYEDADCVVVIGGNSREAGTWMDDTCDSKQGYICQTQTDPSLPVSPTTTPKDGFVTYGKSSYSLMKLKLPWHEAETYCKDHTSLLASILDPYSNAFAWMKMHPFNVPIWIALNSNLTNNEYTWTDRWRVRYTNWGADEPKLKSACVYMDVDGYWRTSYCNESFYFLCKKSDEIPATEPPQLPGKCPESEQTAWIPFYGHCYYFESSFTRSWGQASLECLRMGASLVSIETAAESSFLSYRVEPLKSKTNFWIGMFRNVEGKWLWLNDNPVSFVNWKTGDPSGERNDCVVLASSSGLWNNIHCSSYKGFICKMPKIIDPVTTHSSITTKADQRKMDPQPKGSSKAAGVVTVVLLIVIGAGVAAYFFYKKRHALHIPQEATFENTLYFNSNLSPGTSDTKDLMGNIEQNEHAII
Experiment: Fluorescence anisotropy assay with mouse recombinant CD206
Assay type: binding
Conditions: 50 nM FAM peptide, 1 μM protein, 25 °C
Description: The stocks of fluorescent ligands (FAM-UNO, FAM-CSPGAK and FAM-CPMTDNE) in mQ water were stored at −20° C. […], 150 mM NaCl, 1 mM CaCl2, 0.1% Pluronic F-127, pH 7.4) on the day of experiment. The concentration of fluorescent ligands was determined by absorbance of FAM (E495=75000 M^−1 cm^−1).
The recombinant mouse macrophage mannose receptor rmMMR/CD206 (R&D Systems, catalog number: 2535-MM-050) and recombinant mouse CD163 (R&D Systems, catalog number: 7435-CD-050) were reconstituted at 1 mg/ml in IB, aliquoted and stored at −20° C. To generate linearized version of cyclic FAM-UNO peptide, the peptide at 1 mM concentration was preincubated for 24 h at room temperature in a dark place with 3 mM DTT and diluted with IB 2×10^5 times before the FA assay. The control experiment with FAM-CPMTDNE peptide (FIG. 22) was performed to rule out the possibility of disulphide bond formation, which could affect the binding properties of linear peptides. Initially, the peptide was preincubated in DMSO for 4 days at room temperature to enhance the disulphide bond formation, and then diluted in IB buffer with 3 mM DTT, and the disappearance of preformed dimer was observed as a change in FA signal.
In all experiments, FA signal measurements were done under pseudo first-order conditions with 50 nM singly labelled FAM peptides and 1 μM proteins. […] Assays were carried out in kinetic mode in a total volume of 30 μl at 25° C. on the PHERAstar (BMG Labtech, Germany) microplate reader using an optical module with excitation and emission filters of 485 nm (slit 10 nm) and 520 nm (slit 10 nm), respectively. Dual emission detection mode allows simultaneous recording of intensities that are parallel (l) and perpendicular (1) to the plane of excitation light. […] The background fluorescence (receptor and buffer components in the absence of fluorescent ligand) was subtracted independently from all intensity channels. FA signals at time t after initiation of binding reaction was calculated as parameters r(t) from the equation: […]

## FAM-CSPGAK: FAM-labeled linear CSPGAK (SEQ ID NO: 6) (not fully specified; FAM label)
  change in fluorescence anisotropy (interaction) with mouse recombinant CD206: clear time-dependent increase of anisotropy

## FAM-UNO: FAM-labeled UNO peptide CSPGAKVRC (SEQ ID NO: 1); 5(6)-carboxyfluorescein with 6-aminohexanoic acid spacer at the N-terminus ({FAM-Ahx}-CSPGAKVRC; cysteine pairing not given here)
  change in fluorescence anisotropy (interaction) with mouse recombinant CD206: did not cause a change in the fluorescence anisotropy
